Experimental data: patent US20250043302A1, “MUTATED HYDROXYPHENYLPYRUVATE DIOXYGENASE POLYPEPTIDE, AND CODING GENE AND USE THEREOF” (BEIJING DABEINONG BIOTECHNOLOGY CO., LTD., priority 2021, published 2025)

Columns and labels:
Type in all cases: in vivo
[1] = tested on: Arabidopsis thaliana T1 plants; assay: Topramezone tolerance of transgenic Arabidopsis thaliana T1 plants (spray, bleached leaf area grade, damage score); conditions: 7 DAT, Table 4; for Classification and statistics of the grade of pesticide damage: Grade 0 / Classification and statistics of the grade of pesticide damage: Grade 1 / Classification and statistics of the grade of pesticide damage: Grade 2 / Classification and statistics of the grade of pesticide damage: Grade 3: number of plants; for Scores: pesticide damage score 0-100
Procedure, shortened: (§1)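 Damage was assessed by bleaching grade (0 none; 1 <50%; 2 >50%; 3 100% of leaf area) one week after spraying. Sprays on 18-day-old T1 and wild-type plants used field-rate multiples: topramezone 25–200, isoxaflutole 35–280, mesotrione 52.5–420 g ai/ha.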

[2] = tested on: Arabidopsis thaliana T1 plants; assay: Isoxaflutole tolerance of transgenic Arabidopsis thaliana T1 plants (spray, bleached leaf area grade, damage score); design: Scores (pesticide damage): scale not given here; conditions: spray, Arabidopsis thaliana T1 plants; for Classification and statistics of the grade of pesticide damage: Grade 0 (number of plants) / Classification and statistics of the grade of pesticide damage: Grade 1 (number of plants) / Classification and statistics of the grade of pesticide damage: Grade 2 (number of plants) / Classification and statistics of the grade of pesticide damage: Grade 3 (number of plants): 16 plants
Procedure, shortened: as §1

[3] = tested on: Arabidopsis thaliana T1 plants; assay: Mesotrione tolerance of transgenic Arabidopsis thaliana T1 plants (spray, bleached leaf area grade, damage score); design: Scores: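 damage score 0-100 computed as Σ(N×S)/(T×M)×100 over grades 0-3 with higher meaning more damage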; conditions: Arabidopsis thaliana T1 plants; for Grade 0 (classification and statistics of the grade of pesticide damage; number of plants) / Grade 1 (classification and statistics of the grade of pesticide damage; number of plants) / Grade 2 (classification and statistics of the grade of pesticide damage; number of plants) / Grade 3 (classification and statistics of the grade of pesticide damage; number of plants): 16 plants
Procedure, shortened: as §1

[4] = isoxaflutole 35 g ai/ha (0.5x field concentration)
[5] = isoxaflutole 70 g ai/ha (1x field concentration)

B1: HvHPPDm-F372A-02: nucleotide sequence encoding Hordeum vulgare HPPD with F372A; vector DBN11763 (nucleic acid)
DNA: ATGCCGCCGACGCCCACCACCCCAGCAGCTACCGGAGCTGCGGCTGCAGTAACCCCTGAGCATGCTCGGCCCCACAGGATGGTGAGGTTTAATCCAAGATCAGATCGTTTTCATACACTCTCGTTCCACCATGTTGAGTTCTGGTGCGCCGACGCGGCTTCAGCGGCCGGGAGGTTCGCCTTCGCGCTGGGGGCCCCTCTTGCCGCGCGTAGTGATTTGTCTACTGGGAATTCAGCGCACGCGTCCCAGCTTCTCCGAAGCGGCAGTCTCGCCTTTCTCTTCACTGCACCATATGCAAATGGATGTGATGCAGCAACTGCTTCCCTGCCGAGCTTTTCTGCGGATGCCGCGAGGCGATTCAGTGCTGACCATGGGATCGCCGTCCGGTCAGTTGCTCTTAGAGTGGCTGATGCTGCTGAGGCATTCAGGGCTTCAAGGCGTCGTGGTGCACGCCCGGCGTTTGCCCCGGTTGATCTTGGGCGGGGGTTTGCTTTTGCAGAGGTGGAGCTGTACGGCGACGTGGTGCTCCGATTTGTTTCTCACCCGGACGGCACTGATGTGCCCTTCTTGCCAGGATTTGAAGGTGTGACCAACCCTGATGCCGTGGATTATGGACTCACAAGATTTGATCATGTGGTTGGCAATGTTCCTGAATTGGCACCTGCTGCCGCTTACATCGCAGGTTTTACTGGCTTCCATGAATTTGCTGAATTCACGGCGGAGGATGTTGGTACAACTGAGTCAGGGCTGAACAGTGTTGTTTTAGCCAACAACTCAGAAGGAGTTCTCCTTCCCTTGAATGAACCTGTTCATGGAACCAAGCGCCGCTCCCAAATTCAAACATTTCTTGAGCACCACGGCGGCCCTGGTGTTCAACATATTGCTGTCGCCTCTAGCGACGTCCTGCGTACATTACGCAAGATGAGGGCTCGGTCCGCAATGGGTGGTTTCGACTTCCTCCCTCCACCATTGCCAAAATATTATGAAGGCGTCAGAAGACTTGCAGGAGATGTCCTCTCTGAAGCTCAGATCAAGGAGTGCCAAGAACTTGGCGTCTTGGTTGATAGAGATGACCAAGGAGTACTTCTGCAGATAGCCACAAAACCCGTTGGTGACAGGCCAACTCTTTTCCTGGAGATGATTCAGAGAATTGGCTGCATGGAGAAAGATGAAAGAGGCGAGGAGTACCAGAAGGGTGGTTGTGGAGGCTTTGGAAAAGGAAACTTCTCAGAGCTGTTCAAGTCCATAGAAGATTACGAGAAAAGTCTAGAAGCCAAGCAGTCTGCTGCAGTGCAAGGTTCCTGA
modifications: HvHPPDm-F372A-02 Nucleotide Sequence
notes: vector DBN11763
[1]; topramezone 25 g ai/ha (1×)
  Classification and statistics of the grade of pesticide damage: Grade 0: 15
  Classification and statistics of the grade of pesticide damage: Grade 1: 1
  Classification and statistics of the grade of pesticide damage: Grade 2: 0
  Classification and statistics of the grade of pesticide damage: Grade 3: 0
  Scores: 2
  Resistance evaluation: highly
[1]; topramezone 100 g ai/ha (4×)
  Classification and statistics of the grade of pesticide damage: Grade 0: 8
  Classification and statistics of the grade of pesticide damage: Grade 1: 8
  Classification and statistics of the grade of pesticide damage: Grade 2: 0
  Classification and statistics of the grade of pesticide damage: Grade 3: 0
  Scores: 17
  Resistance evaluation: moderately
[2]; [4]
  Resistance evaluation: Moderately
  Scores (pesticide damage): 33
  Classification and statistics of the grade of pesticide damage: Grade 0 (number of plants): 1
  Classification and statistics of the grade of pesticide damage: Grade 1 (number of plants): 14
  Classification and statistics of the grade of pesticide damage: Grade 2 (number of plants): 1
  Classification and statistics of the grade of pesticide damage: Grade 3 (number of plants): 0
[2]; [5]
  Resistance evaluation: Poorly
  Scores (pesticide damage): 44
  Classification and statistics of the grade of pesticide damage: Grade 0 (number of plants): 0
  Classification and statistics of the grade of pesticide damage: Grade 1 (number of plants): 12
  Classification and statistics of the grade of pesticide damage: Grade 2 (number of plants): 3
  Classification and statistics of the grade of pesticide damage: Grade 3 (number of plants): 1
[3]; mesotrione 52.5 g ai/ha
  Resistance evaluation: Highly resistant
  Scores: 15
  Grade 0 (classification and statistics of the grade of pesticide damage; number of plants): 9
  Grade 1 (classification and statistics of the grade of pesticide damage; number of plants): 7
  Grade 2 (classification and statistics of the grade of pesticide damage; number of plants): 0
  Grade 3 (classification and statistics of the grade of pesticide damage; number of plants): 0
[3]; mesotrione 105 g ai/ha
  Resistance evaluation: Poorly resistant
  Scores: 56
  Grade 0 (classification and statistics of the grade of pesticide damage; number of plants): 0
  Grade 1 (classification and statistics of the grade of pesticide damage; number of plants): 9
  Grade 2 (classification and statistics of the grade of pesticide damage; number of plants): 3
  Grade 3 (classification and statistics of the grade of pesticide damage; number of plants): 4
